Assay results: patent US20140072553A1 (MORPHOTEK, published 2014)

Molecular target: tetanus toxoid (UniProt P04958 2-1315)
Experiment: hybridoma screening ELISA

tetanus toxoid, sequence (P04958 2-457 limits assumed, chain 1 of 2): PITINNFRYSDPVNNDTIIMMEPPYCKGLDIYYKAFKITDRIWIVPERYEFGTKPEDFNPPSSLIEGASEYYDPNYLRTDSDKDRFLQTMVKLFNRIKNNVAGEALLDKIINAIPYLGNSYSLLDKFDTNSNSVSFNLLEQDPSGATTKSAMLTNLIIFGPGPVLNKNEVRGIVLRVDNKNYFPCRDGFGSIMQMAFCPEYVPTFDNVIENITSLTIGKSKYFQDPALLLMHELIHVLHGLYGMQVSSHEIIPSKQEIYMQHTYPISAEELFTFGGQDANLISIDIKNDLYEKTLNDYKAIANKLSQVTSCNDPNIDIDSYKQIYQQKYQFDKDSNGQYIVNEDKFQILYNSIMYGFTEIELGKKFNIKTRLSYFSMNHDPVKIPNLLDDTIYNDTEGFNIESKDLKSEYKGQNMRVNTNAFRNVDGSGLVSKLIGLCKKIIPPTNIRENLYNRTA
tetanus toxoid, sequence (P04958 458-1315 limits assumed, chain 2 of 2): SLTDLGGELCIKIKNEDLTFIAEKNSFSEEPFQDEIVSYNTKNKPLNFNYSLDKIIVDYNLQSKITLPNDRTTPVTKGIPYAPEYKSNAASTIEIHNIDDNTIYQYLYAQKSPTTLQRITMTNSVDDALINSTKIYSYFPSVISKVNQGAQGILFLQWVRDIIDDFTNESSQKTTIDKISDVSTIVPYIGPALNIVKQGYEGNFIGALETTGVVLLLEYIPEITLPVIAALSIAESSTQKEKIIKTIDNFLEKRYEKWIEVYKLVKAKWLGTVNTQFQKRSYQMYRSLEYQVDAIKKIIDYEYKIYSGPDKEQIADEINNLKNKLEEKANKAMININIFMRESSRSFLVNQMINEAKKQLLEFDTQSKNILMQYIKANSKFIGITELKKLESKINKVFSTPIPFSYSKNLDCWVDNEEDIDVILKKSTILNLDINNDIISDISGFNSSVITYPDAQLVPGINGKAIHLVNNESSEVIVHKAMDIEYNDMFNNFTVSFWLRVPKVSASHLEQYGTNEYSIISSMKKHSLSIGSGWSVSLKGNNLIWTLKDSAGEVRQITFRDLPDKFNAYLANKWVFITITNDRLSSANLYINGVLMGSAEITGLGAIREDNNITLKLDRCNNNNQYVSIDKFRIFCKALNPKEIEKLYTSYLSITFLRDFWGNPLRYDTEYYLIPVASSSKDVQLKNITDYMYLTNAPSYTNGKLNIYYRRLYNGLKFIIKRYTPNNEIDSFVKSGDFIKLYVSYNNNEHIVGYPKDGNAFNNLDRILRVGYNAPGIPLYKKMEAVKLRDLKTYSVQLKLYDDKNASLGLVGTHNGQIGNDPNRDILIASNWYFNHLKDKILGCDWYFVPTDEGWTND

B1: human anti-SEB monoclonal antibody F10 (antibody, V domains shown)
VH: QVQLVQSGGGLVKPGGSLRLSCAASGFTFSSYSMNWVRQAPGKGLEWVSSISSSSSYIYYADSVKGRFTISRDNAKNSLYLQMNSLRAEDTAVYYCARGGVAGRTEIYYYYYGMDVWGQGTTVTVSS
VL: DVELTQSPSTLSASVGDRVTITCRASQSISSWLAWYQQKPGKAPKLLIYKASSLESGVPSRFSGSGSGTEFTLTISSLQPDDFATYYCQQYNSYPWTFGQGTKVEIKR
- binding result: no binding

B2: human anti-SEB monoclonal antibody 79G9 (antibody, V domains shown)
VH: EVQLEESGAGLLKPSETLSLTCAVYGGSFSGYYWSWIRQAPGKGLEWIGEIDHSGTTNYNPSLKSRVTISVETSKNQFSLRLSSVTAADSAVYYCASSGYCSHGLCPQEDWGQGTLVTVSS
VL: DIELTQSPSFLSASVGDRVAITCRASQGISNYLAWYQQKPGKAPKLLIYAAFVLQSGVPSRFSGSGSGTEFTLTISNLQPEDFATYYCQQLNSYPRAFGPGTKVDIKR
- binding result: no binding

B3: human anti-SEB monoclonal antibody 100C9 (antibody, V domains shown)
VH: EVQLVESGGGLVQPGGSLRLSCSASGFTFSSYWMSWVRQAPGKGLEWVANIIQDGSEKYYADSVKGRLTISRDNAKNSLYLQMNSLRVDDTAVYYCARGYEGCSATRCYLYYFDYWGPGTLVTVSS
VL: SYVLTQPPSVSVSPGQTARITCSGDALPKQYTYWYQQKPGQAPVVVIYKDSERPSGIPERFSGSSSGTTVTVTISGVQAEDEADYYCQSADSSGTSLVFGGGTKLTVLG
- binding result: no binding
